Measured values: article PMC3847324, “Jun dimerization protein 2 is a critical component of the Nrf2/MafK complex regulating the response to ROS homeostasis”

How the values were obtained:
IVT-Nrf2;IVT-JDP2 = target: T1, IVT-Nrf2;IVT-JDP2 (;mouse, UniProt Q60795;P97875 1-597;1-163, |); experiment: EMSA; EMSA: 5 ug GST fusion or 10 ng IVT protein, 25 C 30 min; 5% native PAGE in 0.5x TBE at 4 C; binding buffer, salt and pH not given; settings: protein: ivt;ivt; tags: ;; copies: 1;1; label: 32P 5' end (T4 kinase) as probe; blunt
T1 sequence 1: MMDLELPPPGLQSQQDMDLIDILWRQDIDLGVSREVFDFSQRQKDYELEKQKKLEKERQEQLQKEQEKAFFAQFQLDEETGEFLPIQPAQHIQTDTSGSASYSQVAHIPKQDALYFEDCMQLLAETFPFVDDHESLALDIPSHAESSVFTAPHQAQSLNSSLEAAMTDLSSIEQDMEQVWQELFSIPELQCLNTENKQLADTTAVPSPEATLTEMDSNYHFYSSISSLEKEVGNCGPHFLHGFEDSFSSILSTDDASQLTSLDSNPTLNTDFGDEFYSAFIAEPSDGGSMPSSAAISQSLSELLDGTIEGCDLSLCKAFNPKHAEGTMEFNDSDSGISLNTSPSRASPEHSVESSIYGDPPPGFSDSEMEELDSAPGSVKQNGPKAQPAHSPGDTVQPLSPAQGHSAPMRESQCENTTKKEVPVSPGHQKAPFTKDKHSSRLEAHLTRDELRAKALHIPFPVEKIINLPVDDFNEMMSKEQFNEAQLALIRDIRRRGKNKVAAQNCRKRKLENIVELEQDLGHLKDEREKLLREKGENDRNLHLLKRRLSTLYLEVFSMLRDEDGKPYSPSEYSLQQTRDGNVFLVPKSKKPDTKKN
T1 sequence 2: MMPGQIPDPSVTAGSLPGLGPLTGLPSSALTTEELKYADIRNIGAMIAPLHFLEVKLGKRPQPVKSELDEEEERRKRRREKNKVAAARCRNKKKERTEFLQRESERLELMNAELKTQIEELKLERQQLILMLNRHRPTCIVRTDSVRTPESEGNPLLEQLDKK

[1] = target: IVT-Nrf2;IVT-JDP2;IVT-MafK (;mouse;rat, UniProt Q60795;P97875;Q8K4B3 1-597;1-163;1-156, ||); experiment: EMSA; large complex with higher DNA-binding activity; EMSA: 5 ug GST fusion or 10 ng IVT protein, 25 C 30 min; 5% native PAGE in 0.5x TBE at 4 C; binding buffer, salt and pH not given; settings: tags: ;;, label: 32P 5' end (T4 kinase) as probe, blunt

B1: human NQO1-ARE WT (dsDNA)
DNA 1: CAGTCACAGTGACTCAGCAGAATCT
DNA 2: AGATTCTGCTGAGTCACTGTGACTG
binding result (IVT-Nrf2;IVT-JDP2): binds | binding result [1]: binds
